From paper PMC9510110, “Assignment of IVL-Methyl side chain of the ligand-free monomeric human MALT1 paracaspase-IgL3 domain in solution” (Biomolecular Nmr Assignments, 2022) come the findings set out here.

The series deals with the molecule itself. Description: anion-exchange chromatography (Q-Sepharose HP); purification step after Ni2+ Sepharose; monomer and dimer forms separated on the column; followed by SEC on Superdex 200 in 20 mM HEPES 7.4, 50 mM NaCl, 1 mM DTT.

B1: human MALT1(Casp-IgL3)338–719 (domain or fragment, UniProt Q9UDY8 338-719, looked up)
chain: PLAKDKVALLIGNMNYREHPKLKAPLVDVYELTNLLRQLDFKVVSLLDLTEYEMRNAVDEFLLLLDKGVYGLLYYAGHGYENFGNSFMVPVDAPNPYRSENCLCVQNILKLMQEKETGLNVFLLDMCRKRNDYDDTIPILDALKVTANIVFGYATCQGAEAFEIQHSGLANGIFMKFLKDRLLEDKKITVLLDEVAEDMGKCHLTKGKQALEIRSSLSEKRALTDPIQGTEYSAESLVRNLQWAKAHELPESMCLKFDCGVQIQLGFAAEFSNVMIIYTSIVYKPPEIIMCDAYVTDFPLDLDIDPKDANKGTPEETGSYLVSKDLPKHCLYTRLSSLQKLKEHLVFTVCLSYQYSGLEDTVEDKQEVNVGKPLIAKLDMHR
notes: Expressed with isotope labels (2H, 15N, 13C; Ile/Val/Leu methyl labelling) in M9 medium; also called MALT1 paracaspase-IgL3 domain; source: E. coli T7 express, pET21b, purified (Ni2+ Sepharose, Q-Sepharose HP, SEC Superdex 200); not shown: His6, C-terminal, kept
Take B1: the binding result was “binds”.
